Values quoted from earlier work as cited in PMC3601411.

Target: Fibrinogen gamma chain C-terminal region (Homo sapiens) (UniProt P02679)
Assay: isothermal calorimetry

## Clumping factor A (ClfA) 229-545 (from UniProt Q2G015)
  Kd: 0.657 µM
